Experimental data from the supplement of paper PMC9233669.
Variants at the floor of the assay were thinned out.

Experiments:
[1] = tested on: biotinyl-Leu-oxazolone; experiment: self-aminoacylation, catalytic enhancement (BLO) (fold over background); higher = more active; k-Seq, kA / k0A0; sequences stand for … in GGGAAUGGAUCCACAUCUACGAAUUC…UUCACUGCAGACUUGACGAAGCUG
How it was run: (§1)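 Working in 50 μL HEPES/NaCl/KCl/MgCl2/CaCl2 buffer with 5% acetonitrile at pH 6.9–7.0, mutagenized RNA pools (0.43 μM; 21-nt variable region) were reacted with 2–1250 μM of each biotinyl-aminoacyl-oxazolone for 90 minutes at room temperature. Streptavidin capture followed, with quantification by triplicate qPCR and Illumina sequencing. Catalytic enhancement is reported as median kA over the uncatalyzed rate, the low-activity peak of a bimodal Gaussian fit to the data.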

[2] = tested on: biotinyl-Val-oxazolone; experiment: self-aminoacylation, catalytic enhancement (BVO) (fold over background); higher = more active; k-Seq, kA / k0A0; sequences stand for … in GGGAAUGGAUCCACAUCUACGAAUUC…UUCACUGCAGACUUGACGAAGCUG
How it was run: as §1

[3] = tested on: biotinyl-Trp-oxazolone; experiment: self-aminoacylation, catalytic enhancement (BWO) (fold over background); higher = more active; k-Seq, kA / k0A0; sequences stand for … in GGGAAUGGAUCCACAUCUACGAAUUC…UUCACUGCAGACUUGACGAAGCUG
How it was run: as §1

[4] = tested on: biotinyl-Met-oxazolone; experiment: self-aminoacylation, catalytic enhancement (BMO) (fold over background); higher = more active; k-Seq, kA / k0A0; sequences stand for … in GGGAAUGGAUCCACAUCUACGAAUUC…UUCACUGCAGACUUGACGAAGCUG
How it was run: as §1

[5] = tested on: biotinyl-Phe-oxazolone; experiment: self-aminoacylation, catalytic enhancement (BFO) (fold over background); higher = more active; k-Seq, kA / k0A0; sequences stand for … in GGGAAUGGAUCCACAUCUACGAAUUC…UUCACUGCAGACUUGACGAAGCUG
How it was run: as §1

[6] = tested on: biotinyl-Ile-oxazolone; experiment: self-aminoacylation, catalytic enhancement (BIO) (fold over background); higher = more active; k-Seq, kA / k0A0; sequences stand for … in GGGAAUGGAUCCACAUCUACGAAUUC…UUCACUGCAGACUUGACGAAGCUG
How it was run: as §1

Row | Sequence | self-aminoacylation [1] | self-aminoacylation [2] | self-aminoacylation [3] | self-aminoacylation [4] | self-aminoacylation [5] | self-aminoacylation [6]
1 | AAGUUCGCUAAUAGUCGCAGG [Fam3.1 aminoacylation ribozyme variant] | 3.87 | 1.89 | 2.2 | 2.87 | 2.51 | 2.54
2 | AUUCACCUAGGUCAACGGGUU [Fam2.2 aminoacylation ribozyme variant] | 1.26 | 1.16 | 0.946 | 1.33 | 0.45 | 1.22
3 | AUUCACCUAGGUCAUCGGGUU [Fam2.2 aminoacylation ribozyme variant] | 26.4 | 9.43 | 13.8 | 18.4 | 118 | 10.8
4 | CCACACUUCAAGCAAUCGCUG [Fam1B.1 aminoacylation ribozyme variant] | 0.928 | 1.12 | 0.872 | 1.13 | 0.653 | 1.22
5 | AAGUUUGCUAAUUGUCGCCAG [Fam3.1 aminoacylation ribozyme variant] | 1.49 | 1.39 | 1.73 | 1.53 | 5.34 | 1.49
6 | CCUGACUUCAAGCAAUCGGUC [Fam1B.1 aminoacylation ribozyme variant] | 1.63 | 1.35 | 23.1 | 1.17 | 45.6 | 1.22
7 | AUUGCCAUGGUCAUCGAGUGA [Fam2.1 aminoacylation ribozyme variant] | 10.1 | 4.81 | 11.6 | 9.29 | 53.5 | 4.75
8 | AUUCACCUAGGUCACGGGGUG [Fam2.2 aminoacylation ribozyme variant] | 5.76 | 3.03 | 4.51 | 4.08 | 22.1 | 2.98
9 | AAGUUUGCUAAUAGUCGGAAG [Fam3.1 aminoacylation ribozyme variant] | 0.934 | 1.03 | 4.58 | 1.16 | 14.8 | 1.13
10 | AUUGCCCUCGUCAUCGAGUGA [Fam2.1 aminoacylation ribozyme variant] | 3.58 | 2.08 | 3.9 | 3.34 | 17.4 | 2.21
11 | CCACACAUCAAGGAAUCGGUC [Fam1B.1 aminoacylation ribozyme variant] | 1.02 | 0.884 | 0.926 | 0.804 | 0.77 | 1.04
12 | AAAUUUGUUAAUAGUCGCAAG [Fam3.1 aminoacylation ribozyme variant] | 1.99 | 1.59 | 1.76 | 2.04 | 2.69 | 2.11
13 | AUUACCCUGGCCAUCGAGAGA [Fam2.1 aminoacylation ribozyme variant] | 0.919 | 1.01 | 0.803 | 1.02 | 0.439 | 0.69
14 | CCACAAUUCAAGCAAGCGGUC [Fam1B.1 aminoacylation ribozyme variant] | 0.998 | 1.42 | 0.509 | 1.3 | 0.932 | 1.3
15 | AUUACCCUGGUUAUCUAGUGA [Fam2.1 aminoacylation ribozyme variant] | 15.3 | 6.4 | 17.6 | 14.4 | 93.5 | 5.78
16 | GUUCAGCUAGGUCAUCGGGUG [Fam2.2 aminoacylation ribozyme variant] | 5.08 | 4.11 | 5.82 | 3.72 | 25 | 3.97
17 | CCACAGUUCAACCAAUCGGUC [Fam1B.1 aminoacylation ribozyme variant] | 1.51 | 1.26 | 5.76 | 1.23 | 6.48 | 1.28
18 | CUCCUUCAUACAAUCGGUCUG [Fam1A.1 aminoacylation ribozyme variant] | 0.771 | 0.664 | 0.794 | 0.609 | 0.839 | 0.652
19 | CCACACGUCAAACAAUCGGUC [Fam1B.1 aminoacylation ribozyme variant] | 1.45 | 1.34 | 1.83 | 1.2 | 1.2 | 1.21
20 | AUUACUCUGGUCAUCGAGUAA [Fam2.1 aminoacylation ribozyme variant] | 1.92 | 1.79 | 2.27 | 2.23 | 1.42 | 2.21
21 | AUUCACCGAGUUCAUCGGGUG [Fam2.2 aminoacylation ribozyme variant] | 5.07 | 3.14 | 4.3 | 4.92 | 37.1 | 3.56

Row | Sequence | self-aminoacylation [1] | self-aminoacylation [2] | self-aminoacylation [3] | self-aminoacylation [4] | self-aminoacylation [5] | self-aminoacylation [6]
22 | UUACUUCAAACAAUCGAUCUG [Fam1A.1 aminoacylation ribozyme variant] | 0.824 | 0.719 | 0.866 | 0.711 | 1.8 | 0.852
23 | UCACACUUCAAGCAAUCGGUA [Fam1B.1 aminoacylation ribozyme variant] | 1.04 | 1.12 | 1.49 | 1.1 | 1.13 | 0.993
24 | CCACACUUAAAGCAAUAGGUC [Fam1B.1 aminoacylation ribozyme variant] | 0.662 | 0.913 | 0.592 | 0.509 | 1.24 | 0.67
25 | AUGACCCUUGUCAUCGAGUGA [Fam2.1 aminoacylation ribozyme variant] | 6.36 | 3.19 | 7 | 6.11 | 31.3 | 3.06
26 | AUUACCCGGGUCAUCGUGUGA [Fam2.1 aminoacylation ribozyme variant] | 5.65 | 3.17 | 5.65 | 4.88 | 39 | 2.6
27 | AUUCAGCUAGGUCAUAGGGUG [Fam2.2 aminoacylation ribozyme variant] | 1.24 | 1.23 | 1.17 | 1.09 | 1.15 | 0.975
28 | AUUCACAUAGGACAUCGGGUG [Fam2.2 aminoacylation ribozyme variant] | 4.24 | 3.22 | 3.93 | 3.84 | 17.7 | 2.84
29 | CCACACUUCAAGCAAUUGAUC [Fam1B.1 aminoacylation ribozyme variant] | 0.536 | 0.538 | 0.518 | 0.368 | 0.853 | 0.573
30 | CAGUUUGCCAAUAGUCGCAAG [Fam3.1 aminoacylation ribozyme variant] | 1.91 | 1.82 | 1.34 | 1.83 | 6.08 | 2.08
31 | ACUCACCUAGGGCAUCGGGUG [Fam2.2 aminoacylation ribozyme variant] | 5.19 | 3.83 | 6.35 | 3.92 | 18.2 | 4.42
32 | AUUACCCUGGUCGUCGCGUGA [Fam2.1 aminoacylation ribozyme variant] | 8.84 | 4.34 | 8.26 | 6.7 | 48.7 | 3.98
33 | AUUAGCCUGGUCAUCGAGCGA [Fam2.1 aminoacylation ribozyme variant] | 2.59 | 2.53 | 4.5 | 2.52 | 2.04 | 2.55
34 | AAGUAAGCUAAUAGUCGCAAG [Fam3.1 aminoacylation ribozyme variant] | 1.43 | 1.33 | 1.5 | 1.18 | 2.82 | 1.55
35 | AUUAUCCUGGUCAUAGAGUGA [Fam2.1 aminoacylation ribozyme variant] | 10.1 | 4.11 | 11.7 | 9.86 | 59 | 4.58
36 | AUUCACCUAGGUUAUAGGGUG [Fam2.2 aminoacylation ribozyme variant] | 4 | 2.11 | 3.5 | 3.65 | 14.1 | 2.23
37 | CCACACUUCAAGGAAUCGGUA [Fam1B.1 aminoacylation ribozyme variant] | 1.23 | 1.18 | 0.902 | 1 | 0.499 | 1.26
38 | CUACUCCAAACAAGCGGUCUG [Fam1A.1 aminoacylation ribozyme variant] | 0.802 | 1.14 | 0.584 | 1.13 | 2.15 | 1.2
39 | CUACUUCAGAGAAUCGGUCUG [Fam1A.1 aminoacylation ribozyme variant] | 0.853 | 0.806 | 0.7 | 0.951 | 0.895 | 0.846
40 | AAGUUUGCUAUGAGUCGCAAG [Fam3.1 aminoacylation ribozyme variant] | 0.778 | 0.974 | 0.54 | 0.644 | 0.664 | 0.692
41 | AAUCACCUAGGUCAUCGGGUC [Fam2.2 aminoacylation ribozyme variant] | 1.37 | 1.63 | 1.21 | 1.81 | 7.16 | 1.79
42 | AUUCACCUAUGUCAUCGGAUG [Fam2.2 aminoacylation ribozyme variant] | 0.606 | 0.758 | 0.502 | 0.581 | 0.61 | 0.826
